How the values were obtained:
Assay in all cases: flow cytometry titration on transfected 293T cells; grade of Reduced avidity read by footnote 3
[1] = biological target: GARP M111T/A112G/T113M / TGF-β1 complex (human, UniProt Q14392 20-662; P01137 30-390)
Procedure: (§1) Intensities of staining at each concentration of antibody relative to the maximal intensity measured at 5 μg/ml were determined as follows:
(§2) The relative staining intensities were plotted according to the concentration of antibody used for staining, and a non-linear regression analysis was used with the Prism software to determine an EC₅₀ value for binding of the antibody to the WT and to each of the various mutant GARP/TGF-β1 complexes. If the ratio between the EC₅₀ measured on the mutant and the EC₅₀ measured on the WT was >2, the mutation was considered to induce a reduced avidity for binding by the antibody. The ratio of EC₅₀ (mutant vs WT) for MHG-8 and LHG-10 are indicated below each mutation on FIG. 19, parts A and B, respectively.

[2] = biological target: GARP G118L/G119L / TGF-β1 complex (human, UniProt Q14392 20-662; P01137 30-390)
Procedure: as §1, §2

[3] = biological target: GARP Y137H / TGF-β1 complex (human, UniProt Q14392 20-662; P01137 30-390)
Procedure: as §1, §2

[4] = biological target: GARP S138G / TGF-β1 complex (human, UniProt Q14392 20-662; P01137 30-390)
Sequence of GARP S138G / TGF-β1 complex (Q14392 20-662 S138G limits assumed, chain 1 of 2): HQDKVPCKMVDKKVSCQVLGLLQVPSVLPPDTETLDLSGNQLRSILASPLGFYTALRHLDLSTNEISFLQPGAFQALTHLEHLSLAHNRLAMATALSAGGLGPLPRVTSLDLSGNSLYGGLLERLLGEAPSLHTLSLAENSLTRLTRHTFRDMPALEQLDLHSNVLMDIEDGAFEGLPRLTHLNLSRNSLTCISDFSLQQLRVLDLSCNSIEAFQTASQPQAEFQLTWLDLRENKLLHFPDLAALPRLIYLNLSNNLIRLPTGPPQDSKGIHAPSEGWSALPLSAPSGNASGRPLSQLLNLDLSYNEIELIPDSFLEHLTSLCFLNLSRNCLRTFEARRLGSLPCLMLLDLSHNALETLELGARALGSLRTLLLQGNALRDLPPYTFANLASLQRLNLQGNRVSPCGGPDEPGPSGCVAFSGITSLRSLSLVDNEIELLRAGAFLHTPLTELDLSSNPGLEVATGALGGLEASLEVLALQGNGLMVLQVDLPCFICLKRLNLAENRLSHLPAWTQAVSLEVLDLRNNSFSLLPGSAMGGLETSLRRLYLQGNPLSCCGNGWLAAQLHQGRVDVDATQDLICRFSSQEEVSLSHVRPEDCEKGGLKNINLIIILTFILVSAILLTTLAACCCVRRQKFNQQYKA
Sequence of GARP S138G / TGF-β1 complex (P01137 30-390 limits assumed, stated change not applied, chain 2 of 2): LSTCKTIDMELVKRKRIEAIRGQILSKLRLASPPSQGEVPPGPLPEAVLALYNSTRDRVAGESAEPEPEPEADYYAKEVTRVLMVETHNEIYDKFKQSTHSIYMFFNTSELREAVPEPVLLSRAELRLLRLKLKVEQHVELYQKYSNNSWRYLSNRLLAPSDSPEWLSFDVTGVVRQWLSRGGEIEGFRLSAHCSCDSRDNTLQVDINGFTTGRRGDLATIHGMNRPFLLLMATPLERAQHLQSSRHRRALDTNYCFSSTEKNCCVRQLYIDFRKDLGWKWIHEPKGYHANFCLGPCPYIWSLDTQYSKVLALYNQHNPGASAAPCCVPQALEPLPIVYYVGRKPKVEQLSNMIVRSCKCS
Procedure: as §1, §2

[5] = biological target: GARP G139N / TGF-β1 complex (human, UniProt Q14392 20-662; P01137 30-390)
Sequence of GARP G139N / TGF-β1 complex (Q14392 20-662 G139N limits assumed, chain 1 of 2): as the sequence (Q14392 20-662 S138G limits assumed, chain 1 of 2) above, with G119S, G120N counted along it
Sequence of GARP G139N / TGF-β1 complex (P01137 30-390 limits assumed, chain 2 of 2): as the sequence (P01137 30-390 limits assumed, stated change not applied, chain 2 of 2) above
Procedure: as §1, §2

[6] = biological target: GARP L140K/E142L / TGF-β1 complex (human, UniProt Q14392 20-662; P01137 30-390)
Procedure: as §1, §2

[7] = biological target: GARP R143Y / TGF-β1 complex (human, UniProt Q14392 20-662; P01137 30-390)
Procedure: as §1, §2

[8] = biological target: GARP T162D / TGF-β1 complex (human, UniProt Q14392 20-662; P01137 30-390)
Procedure: as §1, §2

[9] = biological target: GARP R163E / TGF-β1 complex (human, UniProt Q14392 20-662; P01137 30-390)
Procedure: as §1, §2

[10] = biological target: GARP T165A / TGF-β1 complex (human, UniProt Q14392 20-662; P01137 30-390)
Procedure: as §1, §2

[11] = biological target: GARP R166M/H167E / TGF-β1 complex (human, UniProt Q14392 20-662; P01137 30-390)
Sequence of GARP R166M/H167E / TGF-β1 complex (Q14392 20-662 R166M/H167E limits assumed, chain 1 of 2): as the sequence (Q14392 20-662 S138G limits assumed, chain 1 of 2) above, with G119S, R147M, H148E counted along it
Sequence of GARP R166M/H167E / TGF-β1 complex (P01137 30-390 limits assumed, stated change not applied, chain 2 of 2): as the sequence (P01137 30-390 limits assumed, stated change not applied, chain 2 of 2) above
Procedure: as §1, §2

[12] = biological target: GARP R170A / TGF-β1 complex (human, UniProt Q14392 20-662; P01137 30-390)
Sequence of GARP R170A / TGF-β1 complex (Q14392 20-662 R170A limits assumed, chain 1 of 2): as the sequence (Q14392 20-662 S138G limits assumed, chain 1 of 2) above, with G119S, R151A counted along it
Sequence of GARP R170A / TGF-β1 complex (P01137 30-390 limits assumed, chain 2 of 2): as the sequence (P01137 30-390 limits assumed, stated change not applied, chain 2 of 2) above
Procedure: as §1, §2

[13] = biological target: GARP E189A / TGF-β1 complex (human, UniProt Q14392 20-662; P01137 30-390)
Procedure: as §1, §2

[14] = biological target: GARP / TGF-β1 R58A complex (human, UniProt Q14392 20-662; P01137 30-390)
Procedure: as §1, §2

[15] = biological target: GARP / TGF-β1 E146R complex (human, UniProt Q14392 20-662; P01137 30-390)
Procedure: as §1, §2

[16] = biological target: GARP / TGF-β1 Q269Y complex (human, UniProt Q14392 20-662; P01137 30-390)
Procedure: as §1, §2

[17] = biological target: GARP / TGF-β1 H270Y complex (human, UniProt Q14392 20-662; P01137 30-390)
Procedure: as §1, §2

[18] = biological target: GARP / TGF-β1 Q272Y complex (human, UniProt Q14392 20-662; P01137 30-390)
Procedure: as §1, §2

[19] = biological target: GARP / TGF-β1 Y284A complex (human, UniProt Q14392 20-662; P01137 30-390)
Procedure: as §1, §2

[20] = biological target: GARP / TGF-β1 Y336A complex (human, UniProt Q14392 20-662; P01137 30-390)
Procedure: as §1, §2

[21] = biological target: GARP / TGF-β1 S337A complex (human, UniProt Q14392 20-662; P01137 30-390)
Procedure: as §1, §2

[22] = biological target: GARP / TGF-β1 K338E complex (human, UniProt Q14392 20-662; P01137 30-390)
Procedure: as §1, §2

Measured: ratio of EC50 (mutant vs WT)

B1: LHG-10 (antibody, human IgG1, V domains shown)
VH: EVQLVQPGAELRNSGASVKVSCKASGYRFTSYYIDWVRQAPGQGLEWMGRIDPEDGGTKYAQKFQGRVTFTADTSTSTAYVELSSLRSEDTAVYYCARNEWETVVVGDLMYEYEYWGQGTQVTVSS
VL: DIQMTQSPTSLSASLGDRVTITCQASQSISSYLAWYQQKPGQAPKLLIYGASRLQTGVPSRFSGSGSGTSFTLTISGLEAEDAGTYYCQQYDSLPVTFGQGTKVELK
notes: llama-derived V regions in a full human IgG1
> 2 ratio: [8] | [9]
≤ 2 ratio: all other assays above
